Measurements published in the supplement of paper PMC12455559.

Assay: purified protein yield per well (BCA); higher = higher soluble expression
Procedure, shortened: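 Purified protein yield per well is reported, as measured by the Pierce Rapid Gold BCA kit. The enzymes came from E. coli C41(DE3) autoinduction cultures of 2 mL with 100 µg/mL kanamycin, held at 37 °C for 2 h and 18 °C for 40 h, then lysed and purified on Ni-charged magnetic beads with SUMO protease release. The detection threshold is 25 ug (0.1 mg/mL), and lower values are under it.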

Sequence | purified protein yield per well [µg]
SGGSSPDGPRESRQDGPSSAGPSYPSAGPLEGPYEVRTQTVGPDDVGGRFRGGTVYYPADGSRDYGVIAASPGLGADQSMVQAYGALLASHGFVLITFDTKTPQDSPAQRGRQMLDALDWAAEHSAAAGRADPDRLGVMGHSMGGGAALHAASRDPRIKAAVPLTPYAGKRDWSGVTAATLVVSGSDDEVAPPSGHARAFYDGLDDAKEKAYLELKGDHFVATPPDRLVSRQTVAWFKHFVGGDKAAGEDLCPAPREERVVASRDTCPYG [TEP134] | < 25
QQIGPNPTSAQLNATSGPFAVSSSNVLIASGFGGGTIYYPTQSGSYGVIAVCPGFTGTSSSISWFARRLATHGFVTIAMDTNTLLDQPDSRATQLRAALNYLINNSSSTIRSRINPNLRGVAGHSMGGGGTLIASASDSTLKVGIPLTPWNLSSLPFYSIRVPQLVFGADGDTIAPYAVHARPFYNAIPSTTKKAYALLQSASHFTPNTTDERIGRYGVAFAKRWVYNDTRYSTFLTGAEHNAYNNILRFQTYLHNGPY [DP062] | < 25
QTSAPTSASLNATAGPLSVSTASVLVPVGFGGGTIYYPTVAGQYGVIAISPGFTATQSSIAWLGRRIATHGFVVITLNTNTTLDQPDSRATQLLAALRYVTNSSGTAVRSRIDATRLAVAGHSMGGGGSLIAARDNPTLKASYPLTPWNISTNFSTVRVPTLIIGADGDTIAPVASHARPFYASLPSTTFKAYGELNNATHFTPNSTSTPIGRYGVAWFKRFLDGDTRYSPFLCGAQHTAYATALVFDRYNQNCPY [ESM141] | < 25
AQSPYERGPAPTETSVRASTGPFQYAQVSVPGAGFGSGTIYYPTDTGQGTFGGVAVSPGFLSPEILIAWLGPKLASNGFVVITISTNNPGDQPDSRGEQLLAALNYLATQSPAAVRQRLDPGRLSVIGHSMGGGGALRAADSRPDLQAAIPLGGWHTNKNWSNIRVPTMVIGAQNDFIAPNDQHSQRFYTSITQAPEKAYLRPVGTGHVNVGTGTPVVGKFVLSWLKRFVDDDTRYDQFLCPTPSGSDLVEYHSTCPHT [DP014] | < 25
QVVVFEETFSTGLGKFTAAGSVVTSSGAARLDGCYGCTDGSITSTAISTVDFTGLRLSFDRVTSGLDSGEAGIAEFSTNGSTYTAVESIRTASGRVTFNLPTSAENQSGLRLRFRINASLSSETYTVDNIRLEGTSGSGGGTTNPFEKGPDPTKTMLEASTGPFTYTTTTVSSTTASGYRQGTIYHPTNVTGPFAAVAVVPGYLASQSSINWWGPRLASHGFVVITIDTNSTSDQPPSRATQLMAALNQLKTFSNTSSHPIYRKVDPNRLGVMGWSMGGGGTLIAARDNPTLKAAIPFAPWNSSTNFSTVSVPTLIIACESDSTAPVNSHASPFYNSLPSTTKKAYLEMNNGSHSCANSGNSNAGLIGKYGVSWMKRFMDNDTRFSPYLCGAPHQADLSLTAIDEYRENCPY [TEP066] | < 25
QIGPDPTSASLNATAGSFAVSTSNVTLARGFGGGTIYYPTTAGRYGVVAISPGFTATQSSIAWLGRRLATHGLVVITMNTNSTLDQPASRATQLMAALNYVVNSASSTVRARVDSTRLAVAGHSMGGGGALIAAEDNPTLKAALPLTPWNLSTSFTQVRVPTLIVGADGDTVASVAAHARPFYASLPASTFKAYAELNGATHFTPNSTNTPIGRYGVTWMKRFVDADTRYSPFLCGAAHTAYATALVFDRYNQNCPY [ESM068] | < 25
SAPVHHRAATHTSAAAHHHAPFAVRTTVVPRTAVTKFGGGVIYAPLDTGKPVLGAVVITPGFTDTNANEKEMAELVASQGFVAFAIDTLTTDDLPDLRAAQMLAAADYLTGQSAVRSEVSQDDVGLIGYSFGGGGTMQAAQSRPSIKAAIGLMPFDFPPATDPNAMYPSYPKMTTPTLVITGQKDDVADPKDFGKPAYDSIPAGTPKQYLELAGIGHEGGQHVPSATIRNAVTAFLKRYLDGNSAYAKFICPAPKVGGPISASLSSCPKG [ESM131] | < 25
VENGPAPTVSSVRADAGSYSVSKTSYADNVTPGFGAATVYAPSNTTGQKFGVVSFAPGWTENQSAVDWIARRTASFGFVTIVFDVNNTFFDFPAARAPQLIAALNFVTGTSNQRNLADASREAVVGHSMGGGATLDAARANPSLKATVGLAPWNPGISYSDVTVPSLEIGAQNDFIAGVSNNARYFYNSLPGSTPKAYTEMKSFGHLQTNYPSAQVGAATVSWLKRYVDGDTRYAPFICGAHTGVQNSELSAYASNC [ESM168] | < 25
GPYQVAYYSSYPPVPEFSAATIYFPANKGEDFAGVAISPGFVESQENMSWWGRHLASHGFAVLTLDTNELRDNPSLRADALMAAIEVLRNEGDRMGSTLRGKILKDRMAIMGHSMGGGGTLIAANAHSADLKAAIPFTPWQPDGDFSTISIPTLVIAGENDRIAVMDIHGASLSTIHHEGDEGV [TEP125] | < 25
AETSYENGPDPTSSSIEAVKGPFEVSTQTVSSYSVRDFGGGTIYYPASSVEGGYGAVAISPGYTARKSSIAWLGSRLASQGFVVFTIDTKTTSDRPASRGDQLLASLDYLTENSRIKDQVDPNRLAVMGHSMGGGGVFEAAKDRPELQGAIAMTPWNTNKTFSEVSTPTLIFGAQDDTVAPVSRHSIPLYSGLPSTTPRTYLELRGASHFAPNRSNTTIAAQSIAWLKAFLDEDRRYDQFLCPGPTTGIDLSDVRTSCPF [DP036] | < 25
MRSDMTPEPEGTVAKAGWARSQPRPATRAVMAVAAVLALLAGLLAIGQASARSAPSAASPATTQRGPDPTVGMIEATRGPFATAQVAMPTGHGFGGGMIYYPTDTSQGTWGVLAIVPGYSALFADEEAWMGPWLSSFGFVVVGVETNTRTDSDSQRAADLLAALDYLTTQSPVRTQVDPARMAVLGHSAGGAGAIEAAEQRPSLRALIGLAPGFPGQGLSMAADTVPALIIGGQNDGTVTPSYLSSLYGTLPASTQSAFAQIAGADHVYYTHPNNVEMKLIIPWLKVFVDSDTRYTQFLCPSLPDPSTISAYQPKCPYIPPGGSSSPSSSSSSSSAPPPNSAPLHAVGAAKCLDVPNSSTTAGTQLQIYTCSNGANQLITHTGSNQLTVYSSTMCLDANNKGTTNGTKVIIWPCNGQSNQQWNLNPNGTITSAASGLCLDVTGASTANGALVQLWTCNGGSNQQWHLG [TEP169] | < 25
VQNGPTPTLADLKKDGPYAVTSQTVAGNGFGGGTVYSPNTAGKYALVAVCPGFVSAQSSMTEMGRRLATHGFVVVTIATNTPFDFPSSRATQLLAALKTVAALNTGAVAGKVDTSRQVVSGWSMGGGGTLEAAGITPGLVAGVAFAPWHTSTAKMTSLTVPVAIIGGTSDTIAPVSGHSQKFYDAIPKTTKKMLGVITGADHFFPTKASEPTSYSNISWVKRFADGDTRYSPFLTGQDAAWASFVSTGPF [ESM118] | < 25
FSAPGPSAPCSNCTRGPAPTATALKASSGPFTTAKFSVSGFLKGFGDSTVYYPTNTTGKMGAIAVIPGYLSYENSIDWWGPRLASHGFVVMTMNTETIYDQPDSRASQLSEALDYLIAQSNSSSSPIYNKVDSTRLGAIGWSMGGGGSLKLSTQRSINAIIPQAPWYLGSSAFSGIKTPALILACSADTVAPVAQHASPFYNQIPNSTPKAFLEIYGGSHFCANSGYPNQSMLGMYGIAWMKRFIDFDSRYSQFLCGPNHESDLAISDYRQNCPY [ESM044] | < 25
GGGGGGGGGGNSGDLPAPNPCTANCGFEIGPNPSLSFLRNGPGPLPVSTTTVPRSVDGFGGGTIYYPSNVSREMAAITISPGFTARQGGVAWWGSALASHGFVVMTIDTNSRFDQPASRGRQLDSALSYLISESDRRNSPISGLVDESRLATMGHSMGGGGSLHSASRNRISAAMPLAPWNQSGSGAFNNINVPTMILACESDTTARVGTHAIPFYNRIPNSTDKVYLEINNGNHSCSTGRSGNDRALLRTYGVSWMKRFLDKDGRYNQFLCGPNHTANSSISDFRDTCVF [DP063] | < 25
ADNPYQRGPDPTVASVAATRGTFATAQLTVPAGNGFGGGYIYYPTDTGHGTWGAVAIVPGYSALFADEEAWMGPWLASFGFVVIGVETITRSDGADARATELLAALDYLTQRSAVRDRVDPTRLAVMGHSAGGAGTILAAERRPSLKAAVGLAPGTPGTLSLATDKVPMMVIGGQTDPTVTPAYLDNLYAGMPTTTPSDFVQIAGADHLFFTRANNTEMKVLIPWLKIFLDNDTRYTQFLCPSLADPSGISLYRSKCPYLPPGTTSPSPPSPSPSSPSQSVSPSTPVTGCTAGYRTVGSWPGGFQGEVTVTAGSAAISGWTVGWTLGSGQTITQLWNGALTTSGSAVTVRNASYSGSVPAGGSVVFGFLANGTPSAPVLACASR [ESM027] | < 25
AGEQEYRRGPDPTLASLQAQEGPFAYATVTVPDQATYDGGTIYYPTDTSQGTFGAIAISPGYTGYQNSIAWYGRLLASNGFVVFTIDVENTNYDQPNARGEQLLDALDYLTQTSSVRSRIDPNRLAVAGHSMGGGGALRASYLRPSLQASIPLTPYHTWKNWSWVTVPTMIFGAENDTVTEVEDHAEPFYNTLTSAQERFYIELNAPADHLTPTSYDPTIGQYPRAFAKRYIDTDTRYEQFLCPPPAPSSAVEESRRACLGS [DP031] | < 25
MLRVTHHPPPGGTDSARTRTALPAPGAAPPRPGLPRRRGRLVTLAAAGIAAALVGLFTMTVATGTASAADNPYQRGPDPTRSSVASVNGPFANTSVAVPTGYGFNGGRIYYPTDTSQGTFGAVAISPGYNALFSAELAWMGPWLASHGFVVIGIETNSRNDFDTARGTQLLAALDYLVQQSPVRDRIDPNRLAVSGHSMGGGGALSAALRRSSLKAAVGIAPYSPSSNLANDRVPTMVFAGQADTVVTPSYATGLYNSLPVTTESAYLEVAGADHGFMVGRSNPVLIRTMLPFLKMFVDNDARYSQFLCPLADNNGVVSYRSTCPLLPSTPTTPPPTPSDTPPPTPSQTPTSSPTGNPPGTASLIVGAQSNRCLDVPNASRANGTRVQLWDCNRQANQSWTYTSGKQLRVYGDMCLDAAGSGNGAAVQIYGCHSQTNQQWNVNANGTISSVQSGRCLDVWSTANGAQVQLYDCHGQTNQRFTLTPLT [TEP176] | < 25
CGTTTSTLTTPAVTPQTLSGAATNPYERGPAPTTALLEAARGPYATASTTVPRSSVSDFGGATIYYPTSTADGTFGGVAISPGYTGTQASVAWLGPRLASHGFVVIVIDTLSRYDYPSSRGDQLRAALRYLTTSSAVRTRVDATRLAVMGHSMGGGGALEAAKDNPALKAAIPLTPWNTDKSWPELTTPTLIFGAQNDSVAPVSSHAIPFYTSLASTLPKAYLELRGASHGAPTSTNTTIAKYAVAWLKRFEDADRRYDPFLCPTPAVSTLLSDARSTCPFN [DP069] | < 25
MRRSLPPSAEAGTAVGGAGPGRPARPVLPLAAVALTLVAAVTAALLAIRPATTDAKSSQRGPDPTLAGVAAATGPFTTAQVSVPPGDGFNGGTIYYPADTSRGTWAAVAISPGYTALFADEEAWMGPRLASFGFVVIGIETDSRTDYDSQRGTQLLAALDYLTTQSPVRNRVDPRRLGVIGHSMGGGGVVYAAENRPSLKAAVALAPYSPTQDMSTDTVPTMVIDGQNDTVVTPAAVDALYATLPASTRSAFMQIDGADHAYYTHPNPVEMRVLIPWLKIFLDNDTRYTRFLCPSPADPSGVSSYHSRCP [TEP071] | < 25
